Here are results for one molecule from patent US20240108738A1 (Bicycle, published 2024).

Assay [1] has as its target T1, human NKp46 on cells (CHO-K1/NKp46 cells; CD56+ NK cells of human PBMCs) (human, UniProt O76036 22-304).
T1 construct: whole, on cells; also called NCR1; CD355
Briefly: Kd,app, flow cytometry CHO-K1/NKp46. As to the method:
Plates were then incubated for 1 hour at room temperature in the dark. Post-incubation, the plates were centrifuged at 500 rpm for 5 minutes and supernatant discarded. Samples were then washed twice in 200 μL of 1× phosphate buffer saline (PBS; Gibco™ 10-010-023) at 500 rpm for 5 minutes. Cells were resuspended in 100 μL of PBS and transferred to a new 96-well V-bottom polypropylene plate (Greiner Bio-One 651201). Plates were centrifuged at 500 rpm for 5 minutes and supernatant discarded.
Preparation of samples for flow cytometry: Zombie Violet™ Fixable Viability Dye (BioLegend® 423113) was prepared as a 1:1000 dilution in PBS and 100 μL of viability dye was added to each well and incubated in the dark at 4° C. for 30 minutes. To ensure NKp46 expression, untreated CHO-K1/NKp46 cells were stained with either anti-human NKp46 or an isotype control. Antibody cocktails were prepared by diluting 1.5 μL of either, PE anti-human NKp46 (BioLegend® 331908; clone 9E2) or PE isotype control IgG1, K (BioLegend® 400112), per 100 μL of stain buffer (1×PBS supplemented with 2% FBS). Cells were resuspended in master mix cocktail (100 μL) and incubated at 4° C. for 30 minutes in the dark. Subsequently, cells were washed 3 times in 100 μL of stain buffer for 5 minutes at 500 rpm and supernatant was discarded. Cells resuspended in 200 μL of stain buffer were kept at 4° C. and in the dark until read by BD FACSCelesta™ flow cytometer.
The binding affinity of the bicyclic peptides were calculated using a four-parameter logistic regression using Prism GraphPad software.

Assay [2] deals with T1, human NKp46 on cells (CHO-K1/NKp46 …). The experiment in a line: Kd,app, flow cytometry, total CD56 population of human PBMCs. As to the method:
Cells were resuspended in master mix cocktail (100 μL) and incubated at 4° C. for 30 minutes in the dark. Subsequently, cells were washed 3 times in 100 μL of stain buffer for 5 minutes at 500 rpm and supernatant was discarded.
On the technique in general: A flow cytometer gives signals particle by particle.

T1 sequence (O76036 22-304): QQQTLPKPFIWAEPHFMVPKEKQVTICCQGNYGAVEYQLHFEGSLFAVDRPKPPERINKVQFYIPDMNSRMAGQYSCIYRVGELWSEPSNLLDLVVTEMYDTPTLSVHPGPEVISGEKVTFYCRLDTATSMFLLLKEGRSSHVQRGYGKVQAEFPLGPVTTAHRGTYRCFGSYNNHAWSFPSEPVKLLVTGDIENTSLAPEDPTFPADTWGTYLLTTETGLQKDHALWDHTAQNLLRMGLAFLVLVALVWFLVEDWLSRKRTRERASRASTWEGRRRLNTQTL

B1: BCY15663 (peptide)
peptide: ACYLPDYLCGDEYCAK
modifications: not fully specified; C-terminal D-Lys(PYA) joined to N-(amine-PEG2)-N-bis(PEG3-azide) linker carrying AF488
notes: homodimer of BCY15452; scaffold TATA
On to B1, for which the Kd in assay [1] turned out to be 0.3 nM; in assay [2] it was 0.028 nM.
